Test results taken from paper PMC5645763.

Tests used:
[1] = biological target: SdKefQCTD (KTN-containing carboxy-terminal domain construct of the Shewanella denitrificans Kef potassium efflux system) (Shewanella denitrificans); experiment: AUC; analytical ultracentrifugation (Figure S3); in solution, at the concentrations used (not given)
[2] = biological target: SdKefQCTD (KTN-containing carboxy-terminal domain construct of the Shewanella denitrificans Kef potassium efflux system) (Shewanella denitrificans); experiment: native MS; nanoelectrospray on a QToF-2, 200 mM ammonium acetate, 7.5 uM with respect to the dimer, positive polarity; collisional activation to remove AMP
[3] = biological target: SdKefQCTD (KTN-containing carboxy-terminal domain construct of the Shewanella denitrificans Kef potassium efflux system) (Shewanella denitrificans); experiment: SEC-MALS; size-exclusion chromatography-multiangle laser scattering (Figure S2); in solution, at the concentrations used (not given)
[4] = biological target: SdKefQCTD (KTN-containing carboxy-terminal domain construct of the Shewanella denitrificans Kef potassium efflux system) (Shewanella denitrificans); experiment: SEC; gel filtration (Figure S1); in solution, at the concentrations used (not given)

Measured: stoichiometry N

SdKefQCTD (KTN-containing carboxy-terminal domain construct of the Shewanella denitrificans Kef potassium efflux system) (domain or fragment)
2: all assays above
